In the data set the target is PDGF-BB (UniProt P01127 82-190). In words: microcantilever deflection.
Chain of PDGF-BB (P01127 82-190): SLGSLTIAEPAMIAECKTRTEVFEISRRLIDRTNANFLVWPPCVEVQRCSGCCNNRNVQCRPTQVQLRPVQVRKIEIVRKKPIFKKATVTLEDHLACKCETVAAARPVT

B1: PDGF aptamer (thiolated) (structured_DNA)
DNA: CACAGGCTACGGCACGTAGAGCATCACCATGATCCTGTG
modifications: thiol (HS-aptamer; printed as 3'T after the sequence), immobilized on Au-coated cantilever
As to B1, the binding result is reported as “binds”.

(Values after publication PMC3963500.)
